Experiment [1] has as its target tetrasome (DNA-(H3-H4)2 tetramer complex) (Xenopus laevis) (UniProt P84233). Nature of the experiment: FRET or BRET.
The target in experiment [2] is mouse Nap1 (mNap1) single-cysteine mutant labeled with Alexa 546-C5-maleimide (mouse) (UniProt P28656). Nature of the experiment: other fluorescence titration.

Kd data for 5 substances are collected here from article PMC3535264.

Consider “H2A-H2B_(A488) histone dimer (from UniProt P06897 1-130) (complex)”, for which the Kd in experiment [1] was 0.8 nM.

“H2A_(A488)-H2B histone dimer (from UniProt P02281 1-126) (complex)” yielded a Kd in experiment [1] of 0.7 nM.

In the case of “uH2A containing histone dimer (uH2A-H2B) (from UniProt P0CG48 1-76; P02281 1-126) (complex)”, in experiment [2], the Kd came out at 0.5 nM.

In experiment [2], “uH2B containing histone dimer (H2A-uH2B) (from UniProt P06897 1-130; P0CG48 1-76) (complex)” displayed a Kd of 0.4 nM.

For the substance “unmodified H2A-H2B histone dimer (from UniProt P06897 1-130; P02281 1-126) (complex)”, the Kd in experiment [2] was 0.8 nM.

Broadly, the Kd is the equilibrium constant for the complex coming apart.
